Assay results published in US20240174727A1, “LONG-ACTING NATRIURETIC PEPTIDES AND USES THEREOF” (Eli Lilly and Company, priority 2022, published 2024).

B1: HOOC-(CH2)18-CO-(γGlu)-EKEKEKG-(AEEA)8-S-4Pal-RRSS[CFGKRIDRIGHYSGLGC]PSFRHGSPSSGAPPPS-NH2 (peptide)
peptide: SXRRSSCFGKRIDRIGHYSGLGCPSFRHGSPSSGAPPPS
modifications: N-terminus acylated with HOOC-(CH2)18-CO-(γGlu)-; (AEEA)8 after EKEKEKG; 4Pal; thioacetal linkage between the two bracketed Cys; C-terminal amide
B2: HOOC-(CH2)18-CO-(γGlu)-EKEKEKG-PEG24-S-4Pal-RRSS[CFGKRIDRIGHYSGLGC]PSFRHGGKSSGAPPPS-NH2 (peptide)
peptide: SXRRSSCFGKRIDRIGHYSGLGCPSFRHGGKSSGAPPPS
modifications: N-terminus acylated with HOOC-(CH2)18-CO-(γGlu)-; PEG24 after EKEKEKG; 4Pal; thioacetal linkage between the two bracketed Cys; C-terminal amide
B3: HOOC-(CH2)18-CO-(γGlu)-EKEKEKG-(AEEA)8-EK-βAla-RSS[CFGKRIDRIGHQSGLGC]PSFRHGSPSSGAPPPS-NH2 (peptide)
peptide: EKXRSSCFGKRIDRIGHQSGLGCPSFRHGSPSSGAPPPS
modifications: N-terminus acylated with HOOC-(CH2)18-CO-(γGlu)-; (AEEA)8 after EKEKEKG; βAla; thioacetal linkage between the two bracketed Cys; C-terminal amide
B4: HOOC-(CH2)18-CO-(γGlu)-EKEKEKG-PEG24-S-4Pal-RRSS[CFGKRIDRIGHQSGLGC]PSFRHGGKSSGAPPPS-NH2 (peptide)
peptide: SXRRSSCFGKRIDRIGHQSGLGCPSFRHGGKSSGAPPPS
modifications: N-terminus acylated with HOOC-(CH2)18-CO-(γGlu)-; PEG24 after EKEKEKG; 4Pal; thioacetal linkage between the two bracketed Cys; C-terminal amide
B5: HOOC-(CH2)18-CO-(γGlu)-EKEKEKG-(AEEA)6-S-4Pal-RRSS[CFGKRIDRIGHYSGLGC]PSFRHGSPSSGAPPPS-NH2 (peptide)
peptide: SXRRSSCFGKRIDRIGHYSGLGCPSFRHGSPSSGAPPPS
modifications: N-terminus acylated with HOOC-(CH2)18-CO-(γGlu)-; (AEEA)6 after EKEKEKG; 4Pal; thioacetal linkage between the two bracketed Cys; C-terminal amide
B6: HOOC-(CH2)18-CO-(γGlu)-EKEKEKG-(AEEA)8-EK-βAla-RSS[CFGKRIDRIGHYSGLGC]PSFRHGSPSSGAPPPS-NH2 (peptide)
peptide: EKXRSSCFGKRIDRIGHYSGLGCPSFRHGSPSSGAPPPS
modifications: N-terminus acylated with HOOC-(CH2)18-CO-(γGlu)-; (AEEA)8 after EKEKEKG; βAla; thioacetal linkage between the two bracketed Cys; C-terminal amide
B7: HOOC-(CH2)18-CO-(γGlu)-EKEKEKG-(AEEA)6-EK-βAla-RSS[CFGKRIDRIGHQSGLGC]PSFRHGSPSSGAPPPS-NH2 (peptide)
peptide: EKXRSSCFGKRIDRIGHQSGLGCPSFRHGSPSSGAPPPS
modifications: N-terminus acylated with HOOC-(CH2)18-CO-(γGlu)-; (AEEA)6 after EKEKEKG; βAla; thioacetal linkage between the two bracketed Cys; C-terminal amide
B8: HOOC-(CH2)18-CO-(γGlu)-EKEKEKG-PEG24-S-4Pal-RRSS[CFGKRIDRIGHYSGLGC]PSFRHGSPSSGAPPPS-NH2 (peptide)
peptide: SXRRSSCFGKRIDRIGHYSGLGCPSFRHGSPSSGAPPPS
modifications: N-terminus acylated with HOOC-(CH2)18-CO-(γGlu)-; PEG24 after EKEKEKG; 4Pal; thioacetal linkage between the two bracketed Cys; C-terminal amide
B9: HOOC-(CH2)18-CO-(γGlu)-EKEKEKG-(AEEA)6-EKPRSS[CFGKRIDRIGHYSGLGC]PSFRHGSPSSGAPPPS-NH2 (peptide)
peptide: EKPRSSCFGKRIDRIGHYSGLGCPSFRHGSPSSGAPPPS
modifications: N-terminus acylated with HOOC-(CH2)18-CO-(γGlu)-; (AEEA)6 after EKEKEKG; thioacetal linkage between the two bracketed Cys; C-terminal amide
B10: HOOC-(CH2)18-CO-(γGlu)-EKEKEKG-PEG24-EKPRSS[CFGKRIDRIGHYSGLGC]PSFRHGSPSSGAPPPS-NH2 (peptide)
peptide: EKPRSSCFGKRIDRIGHYSGLGCPSFRHGSPSSGAPPPS
modifications: N-terminus acylated with HOOC-(CH2)18-CO-(γGlu)-; PEG24 after EKEKEKG; thioacetal linkage between the two bracketed Cys; C-terminal amide
B11: HOOC-(CH2)18-CO-(γGlu)-EKEKEKG-(AEEA)8-EKPRSS[CFGKRIDRIGHYSGLGC]PSFRHGSPSSGAPPPS-NH2 (peptide)
peptide: EKPRSSCFGKRIDRIGHYSGLGCPSFRHGSPSSGAPPPS
modifications: N-terminus acylated with HOOC-(CH2)18-CO-(γGlu)-; (AEEA)8 after EKEKEKG; thioacetal linkage between the two bracketed Cys; C-terminal amide

Experiments:
[1] = molecular target: T1, human NPRA (human, UniProt P16066 33-1061); assay: cell-based or functional assay
T1 sequence (looked up): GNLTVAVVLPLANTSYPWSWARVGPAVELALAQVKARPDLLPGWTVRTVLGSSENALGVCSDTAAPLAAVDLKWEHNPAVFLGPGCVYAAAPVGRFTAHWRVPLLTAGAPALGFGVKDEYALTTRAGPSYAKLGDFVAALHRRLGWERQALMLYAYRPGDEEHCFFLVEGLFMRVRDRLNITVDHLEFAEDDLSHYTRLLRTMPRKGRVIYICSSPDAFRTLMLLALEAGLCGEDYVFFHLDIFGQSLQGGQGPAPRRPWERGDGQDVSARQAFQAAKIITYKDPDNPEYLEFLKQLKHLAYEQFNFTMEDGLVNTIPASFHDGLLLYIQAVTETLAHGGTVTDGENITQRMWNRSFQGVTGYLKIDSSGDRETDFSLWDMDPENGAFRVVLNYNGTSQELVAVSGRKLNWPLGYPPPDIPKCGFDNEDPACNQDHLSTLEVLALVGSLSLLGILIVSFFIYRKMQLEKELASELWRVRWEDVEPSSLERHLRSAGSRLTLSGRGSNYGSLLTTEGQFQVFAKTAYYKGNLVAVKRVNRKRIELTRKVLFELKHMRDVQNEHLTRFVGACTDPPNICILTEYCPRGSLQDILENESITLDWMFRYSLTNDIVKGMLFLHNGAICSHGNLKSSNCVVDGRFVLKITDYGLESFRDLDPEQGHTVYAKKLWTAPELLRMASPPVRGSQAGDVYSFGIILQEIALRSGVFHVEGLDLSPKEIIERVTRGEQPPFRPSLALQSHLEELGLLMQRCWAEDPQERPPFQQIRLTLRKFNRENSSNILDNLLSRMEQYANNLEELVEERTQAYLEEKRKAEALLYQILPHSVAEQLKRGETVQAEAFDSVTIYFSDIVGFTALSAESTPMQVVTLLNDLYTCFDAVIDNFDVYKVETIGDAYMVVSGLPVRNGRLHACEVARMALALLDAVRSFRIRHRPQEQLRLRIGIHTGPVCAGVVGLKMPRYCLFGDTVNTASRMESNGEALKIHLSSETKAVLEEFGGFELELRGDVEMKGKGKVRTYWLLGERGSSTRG

[2] = molecular target: T2, rat NPRA (rat, UniProt P18910 29-1057); assay: cell-based or functional assay
T2 sequence (looked up): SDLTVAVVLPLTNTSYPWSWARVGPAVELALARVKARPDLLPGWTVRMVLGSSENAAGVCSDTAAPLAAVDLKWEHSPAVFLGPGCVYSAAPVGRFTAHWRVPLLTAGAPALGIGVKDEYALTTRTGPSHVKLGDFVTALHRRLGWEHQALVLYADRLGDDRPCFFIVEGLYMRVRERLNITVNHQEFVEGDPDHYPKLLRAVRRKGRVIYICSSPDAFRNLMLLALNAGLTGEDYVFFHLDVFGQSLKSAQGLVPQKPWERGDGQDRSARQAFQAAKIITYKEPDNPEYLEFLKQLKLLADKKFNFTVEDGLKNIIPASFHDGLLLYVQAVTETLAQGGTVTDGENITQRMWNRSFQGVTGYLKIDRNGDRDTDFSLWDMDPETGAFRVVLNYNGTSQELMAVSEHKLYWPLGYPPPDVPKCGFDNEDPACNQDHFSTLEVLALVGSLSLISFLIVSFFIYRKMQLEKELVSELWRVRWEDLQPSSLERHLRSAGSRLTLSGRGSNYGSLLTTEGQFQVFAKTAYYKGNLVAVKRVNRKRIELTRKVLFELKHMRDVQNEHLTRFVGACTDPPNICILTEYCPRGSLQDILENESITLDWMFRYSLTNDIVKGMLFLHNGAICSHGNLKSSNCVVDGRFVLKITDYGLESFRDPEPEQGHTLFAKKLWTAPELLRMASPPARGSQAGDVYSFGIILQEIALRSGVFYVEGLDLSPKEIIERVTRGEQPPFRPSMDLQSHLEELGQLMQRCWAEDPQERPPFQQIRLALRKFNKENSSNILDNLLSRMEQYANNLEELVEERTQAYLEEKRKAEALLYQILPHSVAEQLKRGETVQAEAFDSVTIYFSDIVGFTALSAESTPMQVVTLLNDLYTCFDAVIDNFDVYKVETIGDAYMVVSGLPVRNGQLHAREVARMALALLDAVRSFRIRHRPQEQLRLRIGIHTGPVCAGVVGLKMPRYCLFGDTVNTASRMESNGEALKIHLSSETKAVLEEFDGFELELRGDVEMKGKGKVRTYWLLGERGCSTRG

Binder | cGMP Assay (EC50, pM) w/BSA, hNPRA [1] | cGMP Assay (EC50, pM) w/Casein, hNPRA [1] | cGMP Assay (EC50, pM) w/BSA, rNPRA [2] | cGMP Assay (EC50, pM) w/Casein, rNPRA [2]
B1 | 3770 pM | 646 pM | 149000 pM | 3780 pM
B2 | 2210 pM | 580 pM | 89100 pM | 5320 pM
B3 | 10000 pM | 542 pM | 696000 pM | 25400 pM
B4 | 2560 pM | 488 pM | 276000 pM | 16800 pM
B5 | 6020 pM | 621 pM | 149000 pM | 6360 pM
B6 | – | 497 pM | – | 11200 pM
B7 | 12800 pM | 493 pM | 623000 pM | 17900 pM
B8 | 2830 pM | 726 pM | 100000 pM | 5650 pM
B9 | 6380 pM | 490 pM | 150000 pM | 3770 pM
B10 | 5170 pM | 736 pM | 80200 pM | 4850 pM
B11 | 9550 pM | 902 pM | 147000 pM | 3990 pM
